# In patent US20220315909:
# B1: Recombinant Human Matriptase/ST14 Catalytic Domain (protein)
# chain: not shown
# What was measured:
# [1] = target: SEQ ID NO 18003
# [2] = target: SEQ ID NOs: 17202-17993
# [3] = target: SEQ ID NO 17994
# [4] = target: SEQ ID NO 17996
# [5] = target: SEQ ID NO 17998
# [6] = target: SEQ ID NOs: 5-17201
# [7] = target: SEQ ID NO 17997
# [8] = target: SEQ ID NO 17995
# [9] = target: SEQ ID NO 18001
# [10] = target: SEQ ID NO 17999
# [11] = target: SEQ ID NO 18000
# [12] = target: SEQ ID NO 18002
protein,measurement,setting,value
B1,"cleavage ratio (PAR) on peptide array, human MT-SP1 500 nM",[1],showed higher cleavage ratios than the sequence shown as SEQ ID NO: 3 for both the cleavages by human uPA and human MT-SP1
same,"cleavage ratio (PAR) on peptide array, human MT-SP1 500 nM",[2],showed higher cleavage ratios than the sequence shown as SEQ ID NO: 3 for both the cleavages by human uPA and human MT-SP1
same,"cleavage ratio (PAR) on peptide array, human MT-SP1 500 nM",[3],showed higher cleavage ratios than the sequence shown as SEQ ID NO: 3 for both the cleavages by human uPA and human MT-SP1
same,"cleavage ratio (PAR) on peptide array, human MT-SP1 500 nM",[4],showed higher cleavage ratios than the sequence shown as SEQ ID NO: 3 for both the cleavages by human uPA and human MT-SP1
same,"cleavage ratio (PAR) on peptide array, human MT-SP1 500 nM",[5],showed higher cleavage ratios than the sequence shown as SEQ ID NO: 3 for both the cleavages by human uPA and human MT-SP1
same,"cleavage ratio (PAR) on peptide array, human MT-SP1 500 nM",[6],showed higher cleavage ratios than the sequence shown as SEQ ID NO: 2 for both the cleavages by human uPA and human MT-SP1
same,"cleavage ratio (PAR) on peptide array, human MT-SP1 500 nM",[7],showed higher cleavage ratios than the sequence shown as SEQ ID NO: 3 for both the cleavages by human uPA and human MT-SP1
same,"cleavage ratio (PAR) on peptide array, human MT-SP1 500 nM",[8],showed higher cleavage ratios than the sequence shown as SEQ ID NO: 3 for both the cleavages by human uPA and human MT-SP1
same,"cleavage ratio (PAR) on peptide array, human MT-SP1 500 nM",[9],showed higher cleavage ratios than the sequence shown as SEQ ID NO: 3 for both the cleavages by human uPA and human MT-SP1
same,"cleavage ratio (PAR) on peptide array, human MT-SP1 500 nM",[10],showed higher cleavage ratios than the sequence shown as SEQ ID NO: 3 for both the cleavages by human uPA and human MT-SP1
same,"cleavage ratio (PAR) on peptide array, human MT-SP1 500 nM",[11],showed higher cleavage ratios than the sequence shown as SEQ ID NO: 3 for both the cleavages by human uPA and human MT-SP1
same,"cleavage ratio (PAR) on peptide array, human MT-SP1 500 nM",[12],showed higher cleavage ratios than the sequence shown as SEQ ID NO: 3 for both the cleavages by human uPA and human MT-SP1
